Measurements as given in US20110117113A1, “IMMUNOGLOBULIN SINGLE VARIABLE DOMAIN DIRECTED AGAINST HUMAN CXCR4 AND OTHER CELL ASSOCIATED PROTEINS AND METHODS TO GENERATE THEM” (priority 2009, published 2011).
“Also recorded” adds a separate entry of the source.

B1: Nanobody 238D4 (VHH)
VHH: EVQLMESGGGLVQAGGSLRLSCAASGRTFNNYAMGWFRRAPGKEREFVAAITRSGVRSGVSAIYGDSVKDRFTISRDNAKNTLYLQMNSLKPEDTAVYTCAASAIGSGALRRFEYDYSGQGTQVTVSS
B2: 238D2: monovalent anti CXCR4 Nanobody, SEQ ID NO: 2 (protein)
VHH: EVQLVESGGGLVQTGGSLRLSCAASGFTFSSYAMSWVRQAPGKGLEWVSGIKSSGDSTRYAGSVKGRFTISRDNAKNMLYLQMYSLKPEDTAVYYCAKSRVSRTGLYTYDNRGQGTQVTVSS
modifications: Nanobody

Columns and labels:
[1] = molecular target: CXCR4 mutation library clone 2084 (D187V) (human, UniProt P61073 1-352); assay: immunofluorescence on HEK-293T expressing the clone, normalised to wild type
[2] = molecular target: T1, CXCR4 (N119A) (Homo sapiens, UniProt P61073, N119A); assay: Competition binding with [125I]-CXCL12 on constitutively active CXCR4 mutant N119A; details: competition with [125I]-CXCL12 (40 pM)
T1 construct: expressed in transfected cells; host or cells: HEK293T, transient; membranes in A4, whole cells in A5
Procedure: Competition binding assay—Periplasmic fractions were screened in a competition binding assay using membranes from HEK293T cells transiently expressing CXCR4. In short, periplasmic extracts (1:10) or ligands were pre-incubated with membranes in binding buffer (50 mM HEPES (pH 7.4), 1 mM CaCl2, 5 mM MgCl2, 100 mM NaCl, 0.5% bovine serum albumin) supplemented with 0.5% BSA for 1 h at 22° C. before the addition of [^125I]-CXCL12 (40 pM) or [^125I]-238D2 (3 nM) or [^125I]-238D4 (3 nM) for additional 2 h at 22° C. […] Membranes were then harvested over polyethylenimine (0.5%)-treated Whatman GF/C filter plates and washed three times with ice cold binding buffer containing 500 mM NaCl. Plates were counted by liquid scintillation.
CXCR4—specific Nanobodies behave as neutral antagonists or inverse agonists on constitutively active mutants of CXCR4—The CXCR4—specific monovalent Nanobodies 238D2 and 238D4 as well as their bivalent fusion products L3 and L8 were investigated on the constitutively active CXCR4 mutant N119A (equivalent to N3.35A in the Ballestros-Weinstein numbering of class A GPCRs). […] Despite of the large number of CAMs for other class A GPCRs and further efforts to generate additional CAMs for CXCR4 (Berchiche et al., 2007), the N119 mutants of CXCR4 remain the only known CAMs for this receptor. […] Methods: Preparation of membranes and competition binding experiments with [125I]-CXCL12 (40 pM) were performed as described before for wild type CXCR4 (vide supra).

T1 sequence (P61073 whole entry N119A): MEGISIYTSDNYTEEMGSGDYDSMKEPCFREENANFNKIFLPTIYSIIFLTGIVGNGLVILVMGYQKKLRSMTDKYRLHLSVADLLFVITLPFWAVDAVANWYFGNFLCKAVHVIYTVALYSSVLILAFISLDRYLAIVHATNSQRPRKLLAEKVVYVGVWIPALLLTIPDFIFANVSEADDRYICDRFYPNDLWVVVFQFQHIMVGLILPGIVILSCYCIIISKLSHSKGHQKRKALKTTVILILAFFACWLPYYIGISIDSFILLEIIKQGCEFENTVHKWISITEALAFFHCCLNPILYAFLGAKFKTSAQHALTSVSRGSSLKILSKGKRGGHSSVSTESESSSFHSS

Molecule	% immunofluorescence [1]	binding affinities to CXCR4 (N119A) compared to wild type (in words) [2]	binding to CXCR4 (N119A) (in words) ([2]; highest nanobody test concentration 2 μM)
B1	-8%		
B2		somewhat less compared to the wild type receptor	able to bind to CXCR4 (N119A); also recorded: clearly bind to the mutant receptor
